Laboratory results published in patent publication US20080207521A1, “PEPTIDE LIGAND TO IMPAIR CANCER CELL MIGRATION” (priority 2005, published 2008).
Ends that are not written are not given here. * marks the point of attachment. For = O=C*

Tests used:
MDA-MB-468 cells [1] = experiment: Migration of MDA-MB-468 cells in modified Boyden chamber; format: cell-based, human; conditions: 18 h
Method: The HB2 mammary epithelial cell line, a subclone of the MTSV-1.7 cell line, originating from the laboratory of Dr. J. Taylor-Papadimitriou (11) was used. The HB2 cells were cultured in DMEM supplemented with 10% FBS, 5 U/mi penicillin, 0.5 U/ml streptomycin, 2 mM glutamine, 10 μg/ml bovine insulin and 5 μg/ml hydrocortisone. The human mammary carcinoma cell lines MCF-7 and MDA-MB-468 were cultured in DMEM supplemented with 10% FBS, 5 U/ml penicillin, 0.5 U/ml streptomycin and 2 mM glutamine. The pH-experiments were done in MEM supplemented with 10 mM Tris, 0.5% BSA, 5 U/ml penicillin, 0.5 U/ml streptomycin and 2 mM glutamine. The pH 7.4-medium was further supplemented with 4 mM sodium bicarbonate whereas the pH 6.7-medium was not. All cells were incubated at 37° C. in 95% air and 5% CO2.
(§1) Cell migration analyses were performed in a modified Boyden chamber with a polycarbonate membrane (10 μm thick with a porous diameter of 8.0 μm) separating the two chambers (Transwell®; Costar, Cambridge, Mass.). As indicated in some experiments the membranes were coated with collagen by adding collagen-I (10 μg/ml) diluted in 0.25% acetic acid to the upper chamber for 1 h at 37° C., after which it was washed three times with PBS. Each experiment was initiated by detaching the cells by Versene treatment for 10-20 min at 37° C., washed, and re-suspended as a single cell suspension in serum-free DMEM medium supplemented with 0.5% BSA. Together with the indicated agonist a 0.2 ml cell suspension (containing 25,000 MDA-MB-468 or 50,000 HB2 cells) was then added to the upper chamber of the transwell. The lower chamber was filled with 0.6 ml serum-free but BSA-containing DMEM medium supplemented with 1 ng/ml of the chemoattractant IGF-I. As a control, IGF-I was excluded in some wells in each separate experiment. The cells were allowed to migrate in the Boyden chamber for 18 h at 37° C. in a humidified atmosphere of 95% air and 5% CO2. The experiments were terminated by removing the non-migratory cells with a cotton-tipped applicator from the upper surface of the membranes. The remaining cells on the lower surface that had migrated through the membrane were stained for 20 min with 0.5% crystal violet diluted in 20% methanol/80% water. After washing the membranes the number of stained cells per membrane and well was counted in an inverted microscope. The value from each separate experiment represents the median value of three individual wells.
Peptide-induced effects on MDA-MB-468 tumour cell migration and their content of F-actin. (A) The cells were allowed to migrate for 18 h in the absence or presence of the indicated peptides (100 μM) The data in panel A are expressed as means±SEM of 8 separate experiments, each performed in triplicate. * p<0.05. (B) The cells were allowed to adhere to collagen I-coated cover glasses for 18h in the absence or presence of peptide 175 (100 μM). The cells were then stained with Alexa488-Phalloidin as described in the methods section. The illustrated micrographs are representative of 5 separate experiments.
(§2) Effects of peptide 175 modifications on its ability to induce MDA-MB-468 tumour cell adhesion and migration. (A) The cells were allowed to adhere for 60 min to collagen-I coated wells in the absence or presence of peptide 175, three stepwise N-terminal deletion variants of peptide 175 or a formylated version of the tested hexapeptide derived from peptide 175. The amounts of adhesive cells were analyzed as described in the methods and the results are given as means±SEM of 6 separate experiments. (B and C) The cells were allowed to migrate for 18 h in the absence or presence of 1 or 10 μM of peptide 175 (B) or the formylated hexapeptide (C). The data are given as means±SEM of 6 separate experiments, each performed in triplicate. * p<0.05, p<0.01.
Effects of Frz-5 receptor blocking and reduced pH on the abilities of the formylated hexapeptide and Wnt-5a to inhibit tumour cell migration. […]

MDA-MB-468 cells [2] = experiment: Adhesion of MDA-MB-468 breast cancer cells to collagen I (MTS); format: cell-based, human; conditions: 60 min
Method: The adhesion assay was carried out as previously described (12). Briefly, cells were serum-depleted for 16 h, detached with Versene and allowed to adhere as single cells to collagen I for 60 (MDA-MB-468) or 90 min (HB2) at 37° C. Non-adherent cells were removed by washing with PBS. The adherent cells were incubated with a (3-(4,5-dimethylthiazol-2-yl)-5-(3-carboxymethoxyphenyl)-2-(-4-sulfophenyl)-2H-tetrazolium, inner salt (MTS) dye reduction assay (Promega, Madison, Wis.) and absorbance was measured at 490 nm using a Fluostar microplate reader from BMG LabTechnologies (GmbH, Offenberg, Germany). In each experiment a single value was calculated based on the mean of adhesion from six separate wells after the adhesion to plastic alone had been subtracted. The CM used as a control in the adhesion assays was obtained from confluent Wnt-5a overexpressing HB2 cells (for experiments with Wnt-5a antisense HB2 cells) or Wnt-5a overexpressing MCF-7 cells (for MDA-MB-468 cells) stably transfected with a vector over-expressing Wnt5a. A collected CM was always used within three days.
Peptide-induced effects on adhesion and DDR1 phosphorylation in MDA-MB-468 breast cancer cells. (A) Western blot analysis of Wnt-5a protein expression in Wnt-5a antisense and Wnt-5a over-expressing HB2 cells in comparison to MDA-MB-468 tumour cells. The blot is representative of 9 separate experiments. (B) Peptide-induced effects on MDA-MB-468 tumour cell adhesion. The cells were allowed to adhere to collagen type I-coated wells for 60 min in the absence or presence of 100 μM of the indicated peptides or CM. The amounts of adhesive cells were analyzed as described in the methods and the results are given as means±SEM of 8 separate experiments. (C) MDA-MB-468 cell adhesion to collagen I-coated wells in the absence or presence of peptide 175 or a peptide with same amino acid sequence except for a substitution of cysteine for alanine (175Ala) or CM. The amount of adherent cells was estimated as in panel A and expressed as means±SEM of 6 separate experiments, ns=not significant, ** p<0.01 and *** p<0.001. (D) Single MDA-MB-468 cells were allowed to adhere to collagen I-coated plates for 60 min in the absence or presence of the indicated peptides (100 μM), CM or recombinant Wnt-5a (0.8 µg/ml). DDR1 immunoprecipitates were Western blotted with first an anti-phosphotyrosine Ab and then after stripping with an anti-DDR1 Ab. The blots shown are representative of 6 separate experiments.
as §2

Frz-5 receptor [3] = target: T1, Frz-5 receptor (Homo sapiens, UniProt Q13467); experiment: MDA-MB-468 cell migration with Frz-5 receptor blocking Ab or control anti-Frz-2 Ab; format: cell-based; parameters: endogenous in cells; host or cells: MDA-MB-468; conditions: Ab 5 μg/ml, 18 h
Method: The peptide […], corresponding to amino acids 198-217 in the ectodomain of the human Frz-5 receptor was as previously described used to generate a Frz-5 receptor blocking Ab (13). The peptide […], corresponding to amino acids 202-220 in the ectodomain of the human Frz-2 receptor, was used to generate a control anti-Frz-2 Ab. The synthesis of the peptides (the italic letters indicate the Frz-5 and Frz-2 sequences, the cysteine was added for raising and purifying the Ab) and the production of rabbit anti-Frz-5 and anti-Frz-2 antisera were managed by AgriSera (Vännäs, Sweden; permit A69-04 from Ume(a) animal ethic committe). The antisera were affinity purified in the laboratory by coupling the respective peptide antigen to Sulfolink Sepharose over which the respective antisera was then eluted.
Cell migration analyses were performed in a modified Boyden chamber with a polycarbonate membrane (10 μm thick with a porous diameter of 8.0 μm) separating the two chambers (Transwell®; Costar, Cambridge, Mass.). As indicated in some experiments the membranes were coated with collagen by adding collagen-I (10 μg/ml) diluted in 0.25% acetic acid to the upper chamber for 1 h at 37° C., after which it was washed three times with PBS. […] After washing the membranes the number of stained cells per membrane and well was counted in an inverted microscope. […]

Frz-5 receptor [4] = target: T1, Frz-5 receptor; experiment: cell-based or functional assay
DDR1 = DDR1 phosphorylation in MDA-MB-468 cells (immunoprecipitation/Western blot); format: cell-based, human; conditions: recombinant Wnt-5a 0.8 μg/ml; 60 min on collagen I
Method: The phosphorylation status of DDR1 was analyzed as previously described (12), with the following modifications. After serum-depletion for 16 h, the cells were detached with Versene and then allowed to adhere to collagen I for 60 (MDA-MB-468) or 90 min (HB2) at 37° C. The experiments were terminated by lysing both adherent and non-adherent cells with a lysis buffer (50 mM Tris pH 7.4, 1% Triton-X, 5 mM EDTA, 5 mM EGTA, 50 mM NaCl, 10 μg/ml aprotinin, 2.5 mM benzamidine, 1 mM pefabloc, 1 μg/ml leupeptin and 1 mM Na3VO4). For immunoblotting an anti-DDR1 rabbit polyclonal Ab, sc-532 (Santa Cruz Biotech, Santa Cruz, Calif.) was used at a dilution of 1:10,000. The Ab recognizes DDR1b/c, which is essential because collagen only induces phosphorylation of the b or c isoforms of DDR1 in mammary epithelial cells (10).
Peptide-induced effects on adhesion and DDR1 phosphorylation in MDA-MB-468 breast cancer cells. (A) Western blot analysis of Wnt-5a protein expression in Wnt-5a antisense and Wnt-5a over-expressing HB2 cells in comparison to MDA-MB-468 tumour cells. […] The amounts of adhesive cells were analyzed as described in the methods and the results are given as means±SEM of 8 separate experiments. […] The amount of adherent cells was estimated as in panel A and expressed as means±SEM of 6 separate experiments, ns=not significant, ** p<0.01 and *** p<0.001. […]

[5] = system: Wnt-5a antisense HB2 cells; experiment: Migration of Wnt-5a antisense HB2 cells in modified Boyden chamber; format: cell-based, human; conditions: recombinant Wnt-5a 0.4 μg/ml; 18 h
Method: as §1
Effects of the selected and pure peptides on the ability of Wnt-5a antisense HB2 cells to adhere and migrate. (A-E) The ability of the cells to adhere to collagen type I-coated wells was analyzed as previously described for FIG. 2 in the absence or presence of different concentrations of the indicated peptide. (F) Effect of the indicated peptides on migration of Wnt-5a antisense HB2 in a transwell migration assay. The cells were allowed to migrate for 18 h in the absence or presence of 100 μM peptide or 0.4 μg/ml of recombinant Wnt5a. The data are given as means±SEM of 6-7 separate experiments, each performed in triplicate. * p<0.05 and ** p<0.01.

T1 sequence (Q13467 27-585): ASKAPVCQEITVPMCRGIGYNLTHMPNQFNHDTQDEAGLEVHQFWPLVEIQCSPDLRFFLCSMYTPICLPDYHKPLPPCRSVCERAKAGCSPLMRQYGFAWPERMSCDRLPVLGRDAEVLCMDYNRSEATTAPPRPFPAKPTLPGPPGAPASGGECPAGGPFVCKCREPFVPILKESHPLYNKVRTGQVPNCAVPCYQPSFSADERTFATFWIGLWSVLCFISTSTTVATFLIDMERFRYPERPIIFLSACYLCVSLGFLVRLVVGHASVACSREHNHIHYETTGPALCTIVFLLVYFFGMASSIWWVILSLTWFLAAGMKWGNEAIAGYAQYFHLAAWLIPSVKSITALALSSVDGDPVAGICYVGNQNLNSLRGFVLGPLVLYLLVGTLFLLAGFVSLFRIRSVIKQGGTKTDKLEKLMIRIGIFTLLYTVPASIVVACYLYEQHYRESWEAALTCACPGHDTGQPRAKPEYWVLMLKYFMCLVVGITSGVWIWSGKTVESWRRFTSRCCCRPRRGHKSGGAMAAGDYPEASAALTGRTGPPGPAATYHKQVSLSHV

formyl-Met-Asp-Gly-Cys-Glu-Leu (For-MDGCEL) [formylated hexapeptide]
inhibition of migration at pH 6.7 versus pH 7.4 (MDA-MB-468 cells [1]; 10 μM): as effective in inhibiting MDA-MB-468 cell migration at pH 6.7 as at pH 7.4 | motility (migration) (MDA-MB-468 cells [1]; 10 μM): significantly impaired the motility | minimal concentration that had a significant effect on migration (MDA-MB-468 cells [1]): 10 µM | adhesion to collagen I, N-terminal deletion variants and formylation of peptide 175 (MDA-MB-468 cells [2]): restored, and possibly even potentiated its effect on adhesion | effect on migration in presence of anti-Frz-5 or anti-Frz-2 Ab (Frz-5 receptor [3]; formylated hexapeptide 100 μM): mediated via the Frz-5 receptor

formylated tripeptide fMet-Leu-Phe
MDA-MB-468 cell adhesion to collagen I (Frz-5 receptor [4]): 15.7

B1: recombinant Wnt-5a: recombinant mouse Wnt-5a (R&D Systems) (protein)
chain: IIGAQPLCSQLAGLSQGQKKLCHLYQDHMQYIGEGAKTGIKECQYQFRHRRWNCSTVDNTSVFGRVMQIGSRETAFTYAVSAAGVVNAMSRACREGELSTCGCSRAARPKDLPRDWLWGGCGDNIDYGYRFAKEFVDARERERIHAKGSYESARILMNLHNNEAGRRTVYNLADVACKCHGVSGSCSLKTCWLQLADFRKVGDALKEKYDSAAAMRLNSRGKLVQVNSRFNSPTTQDLVYIDPSPDYCVRNESTGSLGTQGRLCNKTSEGMDGCELMCCGRGYDQFKTVQTERCHCKFHWCCYVKCKKCTEIVDQFVCK
modifications: left off: small tags and cut ends
level of DDR1 phosphorylation (DDR1): neither the pure peptides, CM nor recombinant Wnt-5a were able to further increase | migration [5]: effectively decreased the migration | decrease in migration in presence of anti-Frz-5 or anti-Frz-2 Ab (Frz-5 receptor [3]; recombinant Wnt-5a 0.4 μg/ml): mediated via the Frz-5 receptor
